Source: publication PMC11910330, “Familial Alzheimer’s disease mutations in amyloid precursor protein impair calcineurin signaling to NMDA receptors” (The Journal of Biological Chemistry, 2024)

These binders were tested against recombinant GST-tagged CaN A subunit, Q08209 (assay: in vitro peptide pull-down (biotinylated peptide, immunoblot quantification)). Settings: chain shown with the change; recombinant GST-CaN (200 ng); parent: est. 47; read off a plot.

Row | Binder | response (% CaN input recovered)
1 | MAGPHTVFVITGPHEE [APP peptide (APP core CaN-binding sequence in the PVIVIT peptide) I641F] | 23
2 | MAGPHTVIIITGPHEE [APP peptide (APP core CaN-binding sequence in the PVIVIT peptide) V642I] | 44
3 | MAGPHTMIVITGPHEE [APP peptide (APP core CaN-binding sequence in the PVIVIT peptide) V640M] | 43
4 | MAGPHTVIVIPGPHEE [APP peptide (APP core CaN-binding sequence in the PVIVIT peptide) T644P] | 5
5 | MAGPHIVIVITGPHEE [APP peptide (APP core CaN-binding sequence in the PVIVIT peptide) T639I] | 54
6 | MAGPHTVIFITGPHEE [APP peptide (APP core CaN-binding sequence in the PVIVIT peptide) V642F] | 44
